Test results: patent US20240409645A1 (DUALYX, published 2024)

T1: human interleukin-2 receptor β-chain (IL-2Rβ; CD122), recombinant protein (human, UniProt P14784 27-240)
T1 construct: also called human IL-2R subunit CD122
T1 sequence: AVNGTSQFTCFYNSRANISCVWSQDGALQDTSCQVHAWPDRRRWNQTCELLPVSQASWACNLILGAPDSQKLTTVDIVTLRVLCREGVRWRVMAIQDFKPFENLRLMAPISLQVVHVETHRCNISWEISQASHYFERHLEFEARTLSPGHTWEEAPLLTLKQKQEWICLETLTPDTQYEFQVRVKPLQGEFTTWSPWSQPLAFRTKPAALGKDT

T2: human common cytokine receptor γ-chain (γc; IL-2Rγ; CD132), recombinant protein (human, UniProt P31785 23-262)
T2 construct: also called human IL-2R subunit CD132
T2 sequence: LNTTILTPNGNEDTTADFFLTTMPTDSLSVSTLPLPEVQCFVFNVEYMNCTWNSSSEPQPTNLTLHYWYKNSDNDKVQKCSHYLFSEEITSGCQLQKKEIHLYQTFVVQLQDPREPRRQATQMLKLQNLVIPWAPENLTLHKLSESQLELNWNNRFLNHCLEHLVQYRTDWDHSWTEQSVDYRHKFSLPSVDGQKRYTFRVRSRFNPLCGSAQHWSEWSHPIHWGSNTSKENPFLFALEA

T3: human IL-2Rγ (common cytokine receptor γ-chain) (human, UniProt P31785 23-262, limits assumed)
T3 construct: Recombinant human IL-2Rγ protein coated on the ELISA plate or immobilised on the CM5 chip; also called hu IL-2R; CD132
T3 sequence: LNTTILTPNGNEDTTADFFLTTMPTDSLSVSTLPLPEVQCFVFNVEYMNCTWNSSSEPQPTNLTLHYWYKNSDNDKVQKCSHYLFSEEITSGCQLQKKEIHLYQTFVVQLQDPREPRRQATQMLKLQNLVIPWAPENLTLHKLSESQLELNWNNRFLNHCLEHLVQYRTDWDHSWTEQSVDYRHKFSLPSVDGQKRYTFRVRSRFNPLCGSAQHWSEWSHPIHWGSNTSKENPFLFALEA

T4: mouse IL-2Rγ (mouse, UniProt P34902 23-263, limits assumed)
T4 construct: Recombinant mouse IL-2Rγ protein coated on the ELISA plate or immobilised on the CM5 chip; also called mo IL-2R
T4 sequence (looked up): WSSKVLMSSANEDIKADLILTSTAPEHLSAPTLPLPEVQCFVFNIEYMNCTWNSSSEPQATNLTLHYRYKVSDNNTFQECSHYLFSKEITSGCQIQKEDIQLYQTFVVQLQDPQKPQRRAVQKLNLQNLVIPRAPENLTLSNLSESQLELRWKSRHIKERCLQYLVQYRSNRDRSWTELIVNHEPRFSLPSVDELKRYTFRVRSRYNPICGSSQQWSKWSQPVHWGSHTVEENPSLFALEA

B1: 26-MP06A07 VHH (periplasmic extract) (VHH)
VHH: QVQLQESGGGLVQAGGSLRLSCAASGDVFVRYTMAWFRQAPGKEREFVASVTDSGRTTEYVDSVKGRFTVSRDNAKNTAYLQMNNLKPEDTAIYYCAANTDYFQIRSLDLNTWGQGTQVTVSS
notes: soluble VHH in periplasmic extract
B2: 23-MP06F03 VHH (periplasmic extract) (VHH)
VHH: QVQLVESGGGLVQAGGSLRLSCAVSGDVFVRYTMAWFRQAPGKEREFVASVTDSGRTTDYVHSVKGRFTVSRDNAKNTVYLQMNNLKPEDTAVYYCAANTDYFQIKSLDANTWGQGTQVTVSS
notes: as for B1
B3: 16-MP02B08 VHH (periplasmic extract) (VHH)
VHH: EVQLVESGGGLVQAGGSLRLSCAASGRAIENYPVGWFRQAPGKEREFVAAITWISGSTLYADSVKGRFTISRDNAKNTVYLQMSSLKPEDTALYYCAAALKTITRGQNDYSYWGQGTQVTVSS
notes: as for B1
B4: 19-MP03F08 VHH (periplasmic extract) (VHH)
VHH: EVQLVESGGGLVQTGGSLRLSCAASGGTFSRDAMAWFRQVPGKEREFVALISWSGATTNYADSVKGRFAISRDNGKNTVYLQMNRLKPADTAIYYCAADRRPMGSRSYFEPTEYDDWGQGTQVTVSS
notes: as for B1
B5: 35-MP07G01 VHH (periplasmic extract) (VHH)
VHH: QVQLQESGGGLVQGGGSLRLSCAASGGIFSSYAMGWFRQAPGKEREFVAAISRSGRSTNYADSVKGRFTISRDNAKSTVYLQMNSLKPEETAVYYCAAGRYYNSAYDPSPGDFGSWGHGTQVTVSS
notes: as for B1
B6: 24-MP06E05 VHH (periplasmic extract) (VHH)
VHH: QVQLVESGGELVQGGASLRLSCAASGRTFSNANMAWFRQAPEKEREFVALITWSSGSTLYADSVKGRFTISRDNARKMVYLQMNSLKPEDTAVYYCAADGPPYSGTYYRYDTYDYWGQGTQVTVSS
notes: as for B1
B7: 18-MP03C03 VHH (periplasmic extract) (VHH)
VHH: QVQLVESGGGLVQPGGSLRLSCAISGGTLDSYGIGWVRQAPGKQREGVSCMSRSDDRTYYADSVKGRFTISKDSAKNTVYLQMTSLKPEDTAVYYCAAVDAYGCSLVQPTTYDFWGLGTQVTVSS
notes: as for B1
B8: FJ1427_P035MP07E11 (VHH)
VHH: QVQLVESGGGLVQAGGSLRLSCAASGRTLSRYAMGWFRQAPGKEREFVTANSWGGDTYYADSVQGRFTFSRDNAKNTVYLQMNSLQPEDTAVYYCAAAPTSFATTAYSSSNSYAYWGQGTQVTVSS
notes: Tested as soluble VHH fragment in periplasmic extract (P.E.); also called Clone nr
B9: FJ1427_P035MP07G11 (VHH)
VHH: QVQLQESGGGLVQAGGSLRLSCAASGRTLSRYAMGWFRQAPGKEREFVTANSWGGDTYYADSVQGRFTFSRDNAKNTVYLQMNSLQPEDTAVYYCAAAPTSFATTAYSSSNSYAYWGQGTQVTVSS
notes: as for B8
B10: FJ1427_P035MP07F11 (VHH)
VHH: QVQLVESGGGLVQAGGSLRLSCAASGRTLSRLAMGWFRQAPGKEREFVAVNSWGGDTFYADSVEGRFTYSRDNAKSAVYLQMNSLQPEDTAVYYCAAAPTSFATTAYSSSNSYAYWGQGTQVTVSS
notes: as for B8
B11: FJ1427_P035MP07C11 (VHH)
VHH: QVQLVESGGGLVQAGASLRLSCAASGRTLSRYAMGWFRQAPGKEREFVAASSWGGDTYYADSVEGRFTFSRDNAKNAVYLQMNSLQPEDTAVYYCAGAPTSFATTAYSSSNSYAYWGQGTQVTVSS
notes: as for B8
B12: FJ1427_P035MP07D12 (VHH)
VHH: QVQLVESGGGLVQAGGSLRLSCAASGRALSRLAMGWFRQAPGKEREFVVASSWGDDTFYADSVKGRFTFSRDNAKNTVYLQMNSLQPGDTAVYYCAAAPTSFATTAYSSSNSYAYWGQGTQVTVSS
notes: Tested as soluble VHH fragment in periplasmic extract (P.E.); also called Clone nr; 668
B13: FJ1427_P035MP07E12 (VHH)
VHH: QVQLVESGGGLVQAGGSLRLSCAASGRTLSRYAMGWFRQAPGKEREFVTANSWGGDTYYTDSVEGRFTFSRDNAKNAVYLQMNSLQPEDTAVYYCAAAPTSFATTAYSSSNSYTYWGQGTQVTVSS
notes: as for B8
B14: FJ1427_P035MP07B12 (VHH)
VHH: EVQLVESGGGLVQAGGSLRLSCAASGRTLSRYAMGWFRQAPGKEREYVAIDSWGGDTFYADSVEGRFTFSRDNAKNEVYLQMNSLQPEDTAVYYCAGAPTSFATTAYSSSNSYRYWGQGTQVTVSS
notes: as for B8
B15: FJ1427_P035MP07A12 (VHH)
VHH: QVQLQESGGGLVQAGGSLRLSCAASGRTLSRYAMGWFRQAPGSEREFVAASSWGGDTFYADSVEGRFTFSRDNAKNAVYLQMNSLQPEDTAAYYCAAAPTSFPTTAYSSSNSYAYWGQGTQVTVSS
notes: as for B8
B16: 22-MP03F12 VHH (periplasmic extract) (VHH)
VHH: EVQLVESGGGLVQAGGSLRLSCAASGSIFSINAMAWFRQVPGMERELVAAISRDGGASVYRDSVKGRFTISRDNSKNTVYLQMNTLKPEDTAIYVCAATRAIGWTARWITTDFDFWGQGTQVTVSS
notes: as for B1
B17: 17-MP02C09 VHH (periplasmic extract) (VHH)
VHH: QVQLQESGGGLVQAGGSLRLSCVASGSVSSINGMAWYRQGADNQRVLVAAISRVGNTAYGDSVKGRFTISRQNARNTVYLQMNSLKPEDTAVYYCNADSWGGDDYWGQGTQVTVSS
notes: as for B1
B18: 15-MP02E06 VHH (periplasmic extract) (VHH)
VHH: QVQLVESGGGSVQPGGSLRLSCAASGFTFSNYAMSWVRQAPGKGLEWVASITGFGRGTDYADSVKGRFTISRDNAEDTLYLQMNSLKPEDTAVYYCAKYSSSTYYPPTPARGRDYRGQGTQVTVSS
notes: as for B1
B19: 20-MP03F10 VHH (periplasmic extract) (VHH)
VHH: EVQLVESGGGLVQAGGSLRLSCAASGRDFSSYAMGWFRQAPGKEREFVVAITWTKRSTDFPDSVKGRFTISRDNAKNTVYLDMNSLKPEDTAVYYCASARGLPVTPLGDIIYWGEGTLVTVSS
notes: as for B1

Columns and labels:
[1] = target: T1, human interleukin-2 receptor β-chain …; assay: P.E. off-rate SPR
Outline: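 CM5 chip, amine coupling (acetate buffer), ~2500 RU receptor. VHH P.E. flowed at 30 uL/min; off-rate read over 120 s.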

[2] = target: T1, human interleukin-2 receptor β-chain …; assay: P.E. binding ELISA
Outline: (§1)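 Plates were coated overnight at 4° C with human or mouse IL-2R chain protein, and free sites blocked for 1 hour in 4% Marvel in PBS. Periplasmic extracts diluted 1:5 in 1% Marvel/PBS then bound for 1 hour, with specificity assessed from 450 nm absorbance relative to negative controls.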

[3] = target: T2, human common cytokine receptor γ-chain …; assay: P.E. binding ELISA
Outline: as §1

[4] = target: T3, human IL-2Rγ (common cytokine receptor …); assay: binding ELISA, periplasmic extract on coated human IL-2Rγ
Experimental: (§2) In a binding ELISA, human or mouse IL-2Rα, IL-2Rβ and IL-2Rγ proteins were coated directly on maxisorp microtiter plates overnight at 4° C. Free binding sites were blocked using 4% Marvel in PBS for 1 hour. Next, 1:5 dilution of P.E. in 1% Marvel/PBS were added to wells and incubated for 1 hour. […] Binding specificity was determined based on O.D. at 450 nm values compared to negative controls.

mouse IL-2Rγ [5] = target: T4, mouse IL-2Rγ; assay: binding ELISA, periplasmic extract on coated mouse IL-2Rγ
Experimental: as §2

[6] = target: T3, human IL-2Rγ (common cytokine receptor …); assay: SPR off-rate ranking, periplasmic extract over immobilised human IL-2Rγ
Experimental: (§3) SPR was performed to determine dissociation rates using Biacore 3000 instrument (GE Healthcare). Briefly, human and mouse IL-2R proteins were immobilized on carboxylmethyl dextran sensor chip (CM5) at approximately 2500 RUs using amine coupling in acetate buffer (GE Healthcare). The VHH-containing P.E. were loaded with a flow rate of 30 uL/min and the off-rates were measured over a 120s period.

mouse IL-2Rγ [7] = target: T4, mouse IL-2Rγ; assay: SPR off-rate ranking, periplasmic extract over immobilised mouse IL-2Rγ
Experimental: as §3

Binder	koff [1]	OD450 nm [2]	OD450 nm [3]	P.E. binding ELISA OD450 [4]	P.E. binding ELISA OD450 (mouse IL-2Rγ [5])	koff [6]	koff (mouse IL-2Rγ [7])
B1	0.000363 s⁻¹	1.03 OD450 nm	–	–	–	–	–
B2	0.00105 s⁻¹	0.54 OD450 nm	–	–	–	–	–
B3	0.000141 s⁻¹	1.38 OD450 nm	–	–	–	–	–
B4	0.000296 s⁻¹	0.245 OD450 nm	–	–	–	–	–
B5	–	–	0.134 OD450 nm	–	–	–	–
B6	0.000471 s⁻¹	0.355 OD450 nm	–	–	–	–	–
B7	0.000594 s⁻¹	0.405 OD450 nm	–	–	–	–	–
B8	–	–	–	0.398 OD450 nm	0.045 OD450 nm	0.00304 s⁻¹	0.109 s⁻¹
B9	–	–	–	0.999 OD450 nm	0.046 OD450 nm	0.00351 s⁻¹	0.099 s⁻¹
B10	–	–	–	0.983 OD450 nm	0.686 OD450 nm	0.00131 s⁻¹	0.00757 s⁻¹
B11	–	–	–	0.858 OD450 nm	–	0.00485 s⁻¹	–
B12	–	–	–	0.511 OD450 nm	0.051 OD450 nm	0.00199 s⁻¹	0.0122 s⁻¹
B13	–	–	–	0.956 OD450 nm	0.05 OD450 nm	0.00305 s⁻¹	0.0883 s⁻¹
B14	–	–	–	1.79 OD450 nm	0.7 OD450 nm	0.00153 s⁻¹	0.00766 s⁻¹
B15	–	–	–	0.485 OD450 nm	–	0.0027 s⁻¹	–
B16	0.000419 s⁻¹	0.781 OD450 nm	–	–	–	–	–
B17	0.000848 s⁻¹	1.21 OD450 nm	–	–	–	–	–
B18	0.00169 s⁻¹	0.581 OD450 nm	–	–	–	–	–
B19	0.000595 s⁻¹	0.497 OD450 nm	–	–	–	–	–
